Experimental data: US20120052069A1

target: β-Klotho overexpressed in recombinant human 293T kidney cells; assay: cell-based or functional assay

EC50 (nM), ELK luciferase assay [nM]	Efficacy, ELK luciferase assay [%]	Substance
272	69.9	hFc-(L15)-hFGF21(L98R, P171G, S181P, P182) (Fc fusion)
428	44.4	hFc-(L15)-hFGF21(L98R, P171G, Y179P) (Fc fusion)
617	77.1	hFc-(L15)-hFGF21(L98R, P171G, A180P) (Fc fusion)
3.07	77.6	hFc-(L15)-hFGF21(L98R, P171G, S181T) (Fc fusion)
167	63.9	hFc-(L15)-hFGF21(1-178, L98R, P171G) (Fc fusion)
130	87.9	hFc-(L15)-hFGF21(L98R, P171G, S181K) (Fc fusion)
4310	99.7	hFc-(L15)-hFGF21(L98R, P171G, GGGGG182-6) (Fc fusion)
3.43	77.3	hFc-(L15)-hFGF21(L98R, P171G, S181G) (Fc fusion)
834	83.1	MKEDD-hFGF21-(L15)-hFc (Fc fusion)
3.46	72.6	hFc-(L15)-hFGF21(L98R, P171G, S181L) (Fc fusion)
61	82.6	hFc-(L15)-hFGF21(L98R, P171G, Y179G) (Fc fusion)
7.8	77.4	hFc-(L15)-hFGF21(L98R, P171G, 1-179) (Fc fusion)
2.66	73.5	hFc-(L15)-hFGF21(L98R, P171G, S181A) (Fc fusion)
33.8	79.5	hFc-(L15)-hFGF21(L98R, P171G, S181P) (Fc fusion)
